Test results: US20040091964A1, “Modified proteins, isolated novel peptides,and uses thereof” (priority 2003, published 2004)
Entries after “also recorded” stand apart in the source; their conditions may differ.

Key:
MDCK cells = assay: Localization of GFP fusion proteins in polarized MDCK cells by confocal microscopy; type: cell-based, canine; settings: GFP fusion protein, confluent MDCK cells on Transwell membranes
Description: The cMOAT-gfp and MRP1-gfp constructs supra (1 μg of DNA per transfection) were separately transfected into MDCK cells and L1210 cells using a UpofectAMINE transfection kit (Life Technologies, Inc.). Transfections of MDCK cells were carried out using Transwell plates (Costar, 24 mm×3 μm polycarbonate membrane) to enable cell polarization. Cells were imaged using a NikonTE300 inverted microscope linked to a Radiance 2000 Laser Scanning System for confocal microscopy and Lasersharp 2000 imaging software (Bio-Rad).
To conveniently detect the localization of the proteins under investigation, GFP fusion proteins were produced and their localization visualized using confocal microscopy to visualize the fluorescent product, as described supra. […]

L1210 cells [1] = assay: 2,4-Dinitrophenyl glutathione (DNP-GS) transport from L1210 cells; type: cell-based, mouse; settings: L1210 cells expressing the protein, compared with control L1210 cells; spectrophotometry
Excerpt: DNP-GS was generated in L1210 cells by exposure to 1-chloro-2,4-dinitrobenzene and its efflux determined as described previously (Olive et al., (1994) Biochim. Biophys. Acta 1224, 264-268).

L1210 cells [2] = assay: Survival of L1210 cells in the presence of Busulfan; type: cell-based, mouse; settings: versus non-transfected L1210 cells or L1210 cells expressing native cMOAT
Description: Accordingly, the ability of modified cMOAT polypeptides to confer resistance to Busulfan was determined in L1210 cells. In particular, the ΔcMOAT polypeptide having the amino acid sequence set forth in SEQ ID NO: 4, was expressed in L1210 cells as described in Example 1. The transfected cells were exposed to a range of concentrations of Busulfan. The survival of wild type L1210 cells, and transfected L1210 cells expressing either native cMOAT or ΔcMOAT, was determined in the presence of Busulfan. Survival was also assessed relative to the growth of cells that had not been exposed to Busulfan. Cell growth and survival were assayed using standard procedures (Denizot et al (1986), J. Immunol. Methods 89, 271-277).

L1210 cells [3] = assay: [3H]paclitaxel transport from L1210 cells expressing modified MDR3; type: cell-based, mouse; settings: L1210 cells stably expressing the polypeptide without GFP tag, compared to control L1210 cells
Description: The transport of [^3H]paclitaxel is determined from L1210 cells expressing the modified MDR3 polypeptide and compared to the efflux of [^3H]paclitaxel from control L1210 cells not ectopically expressing any MDR3 polypeptide.

L1210 cells [4] = assay: 6-mercaptopurine transport (6-thio-IMP efflux) from L1210 cells expressing modified MRP4; type: cell-based, mouse; settings: L1210 cells stably expressing the polypeptide without GFP tag, compared to control L1210 cells or L1210 cells expressing native MRP4
Description: Radiolabeled 6-mercaptopurine is added to L1210 cells expressing the modified MRP4 polypeptide and the efflux of 6-thio-IMP compared to the efflux of 6-thio-IMP from L1210 cells expressing native MRP4, or alternatively, the efflux of 6-thio-IMP from control L1210 cells not ectopically expressing any MRP4 polypeptide.

**Q.** “S1542A: modified cMOAT polypeptide with Ser1542 mutated to alanine, tested as cMOAT-gfp fusion” was tested. Which “membrane localization in polarized MDCK cells” value (from here on “membrane localization”) (MDCK cells) did it give?
**A.** fluorescence appears to be in sub-membrane vesicles

**Q.** How did the “efflux of DNP-GS into the supernatant” value (L1210 cells [1]) turn out when “ΔcMOAT: modified human cMOAT polypeptide wherein the C-terminal T-K-F motif was deleted, without a GFP tag” was run?
**A.** significantly higher efflux; also recorded: transport 2,4-dinitrophenyl glutathione; also recorded: increased transport

**Q.** And the “resistance to Busulfan conferred on L1210 cells” value (L1210 cells [2])?
**A.** significantly enhanced resistance to Busulfan

**Q.** How did the “efflux of DNP-GS into the supernatant” value (L1210 cells [1]) turn out when “cMOAT: native human canalicular multispecific organic anion transporter (MRP2) [reference compound]” was run?
**A.** little evidence for the transport of DNP-GS; also recorded: minimal; also recorded: same rate of efflux

**Q.** Which “membrane localization” value (MDCK cells) does the source give for “F1545A: modified cMOAT polypeptide with Phe1545 mutated to alanine, tested as cMOAT-gfp fusion” here?
**A.** did not exhibit modified localization; also recorded: did not alter normal targeting; also recorded: same localization as the native protein

**Q.** How did the “membrane localization” value (MDCK cells) turn out when “T1543A: modified cMOAT polypeptide with Thr1543 mutated to alanine, tested as cMOAT-gfp fusion” was run?
**A.** both apical and basolateral targeting with an increase in protein accumulation in intracellular vesicles; also recorded: non-polarized distribution

**Q.** How did the “efflux of [3H]paclitaxel” value (L1210 cells [3]) turn out when “modified MDR3 polypeptide: modified human MDR3 polypeptide lacking the T-K-F motif (terminal 4 amino acids deleted)” was run?
**A.** significantly higher efflux

B1: modified MRP4 polypeptide: modified human MRP4 polypeptide lacking the T-K-F motif (terminal 3 amino acids deleted) (protein, listed as Homo sapiens)
chain: MLPVYQEVKPNPLQDANLCSRVFFWWLNPLFKIGHKRRLEEDDMYSVLPEDRSQHLGEELQGFWDKEVLRAENDAQKPSLTRAIIKCYWKSYLVLGIFTLIEESAKVIQPIFLGKIINYFENYDPMDSVALNTAYAYATVLTFCTLILAILHHLYFYHVQCAGMRLRVAMCHMIYRKALRLSNMAMGKTTTGQIVNLLSNDVNKFDQVTVFLHFLWAGPLQAIAVTALLWMEIGISCLAGMAVLIILLPLQSCFGKLFSSLRSKTATFTDARIRTMNEVITGIRIIKMYAWEKSFSNLITNLRKKEISKILRSSCLRGMNLASFFSASKIIVFVTFTTYVLLGSVITASRVFVAVTLYGAVRLTVTLFFPSAIERVSEAIVSIRRIQTFLLLDEISQRNRQLPSDGKKMVHVQDFTAFWDKASETPTLQGLSFTVRPGELLAVVGPVGAGKSSLLSAVLGELAPSHGLVSVHGRIAYVSQQPWVFSGTLRSNILFGKKYEKERYEKVIKACALKKDLQLLEDGDLTVIGDRGTTLSGGQKARVNLARAVYQDADIYLLDDPLSAVDAEVSRHLFELCICQILHEKITILVTHQLQYLKAASQILILKDGKMVQKGTYTEFLKSGIDFGSLLKKDNEESEQPPVPGTPTLRNRTFSESSVWSQQSSRPSLKDGALESQDTENVPVTLSEENRSEGKVGFQAYKNYFRAGAHWIVFIFLILLNTAAQVAYVLQDWWLSYWANKQSMLNVTVNGGGNVTEKLDLNWYLGIYSGLTVATVLFGIARSLLVFYVLVNSSQTLHNKMFESILKAPVLFFDRNPIGRILNRFSKDIGHLDDLLPLTFLDFIQTLLQVVGVVSVAVAVIPWIAIPLVPLGIIFIFLRRYFLETSRDVKRLESTTRSPVFSHLSSSLQGLWTIRAYKAEERCQELFDAHQDLHSEAWFLFLTTSRWFAVRLDAICAMFVIIVAFGSLILAKTLDAGQVGLALSYALTLMGMFQWCVRQSAEVENMMISVERVIEYTDLEKEAPWEYQKRPPPAWPHEGVIIFDNVNFMYSPGGPLVLKHLTALIKSQEKVGIVGRTGAGKSSLISALFRLSEPEGKIWIDKILTTEIGLHDLRKKMSIIPQEPVLFTGTMRKNLDPFNEHTDEELWNALQEVQLKETIEDLPGKMDTELAESGSNFSVGQRQLVCLARAILRKNQILIIDEATANVDPRTDELIQKKIREKFAHCTVLTIAHRLNTIIDSDKIMVLDSGRLKEYDEPYVLLQNKESLFYKMVQQLGKAEAAALTETAKQVYFKRNYPHIGHTDHMVTNTSNGQPSTLTIFE
**Q.** How did the “efflux of 6-thio-IMP” value (L1210 cells [4]) turn out when B1 was run?
**A.** significantly higher efflux
